Measurements published in paper PMC4658667.
pKd: −log10 of the molar value.

What was measured:
[1] = target: CdiI^Nlact immunity protein from Neisseria lactamica ATCC 23970, His6-tagged (Neisseria lactamica ATCC 23970); experiment: BLI
[2] = target: CdiIo11^EC869 immunity protein from Escherichia coli EC869, His6-tagged (Escherichia coli EC869); experiment: BLI

Row | Substance | pKd [1] | pKd [2]
1 | CdiA-CTo11^EC869, orphan-11 CdiA-CT toxin from Escherichia coli EC869 (domain or fragment) | 4.09 | 
2 | CdiA-CTo11^EC869/Δβ4β5, CdiA-CTo11^EC869 with the β-hairpin (Lys242–Thr252) replaced by a Gly-Ser-Gly linker (domain or fragment) |  | < 3.52
